Assay results published in US6300312A, “Antagonists of G-protein-coupled receptor” (Hô ;pital Sainte-Justine, priority 2000, dated 2001).

Assays:
EP1 = molecular target: T1, EP1 (Homo sapiens, UniProt P34995); experiment: Phosphoinositide hydrolysis in A549 cells stably expressing the peptides, stimulated with PGE2; assay type: cell-based; details: peptide stably expressed intracellularly in A549 cells; 1 μM PGE2, 30 min; FIG. 1B
T1 construct: a related prostaglandin receptor expressed in these cells; endogenous in cells; host or cells: A549 lung carcinoma cells (ATCC CCL185)
T1 sequence (P34995 1-402): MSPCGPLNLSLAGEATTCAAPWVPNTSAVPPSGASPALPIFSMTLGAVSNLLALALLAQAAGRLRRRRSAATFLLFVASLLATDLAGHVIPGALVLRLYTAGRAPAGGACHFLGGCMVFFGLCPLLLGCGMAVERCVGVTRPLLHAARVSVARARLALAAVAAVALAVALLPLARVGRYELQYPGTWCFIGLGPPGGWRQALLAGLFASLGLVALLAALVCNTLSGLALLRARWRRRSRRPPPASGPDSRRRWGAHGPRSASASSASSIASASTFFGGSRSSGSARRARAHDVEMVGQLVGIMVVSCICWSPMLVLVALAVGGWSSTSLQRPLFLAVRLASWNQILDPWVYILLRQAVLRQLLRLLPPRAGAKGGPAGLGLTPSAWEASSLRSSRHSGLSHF
Experimental: (§1) A549 lung carcinoma cells (ATCC Accession No.: CCL185, American Type Culture Collection, Rockville, Md. 20852) were cultured in Dulbecco's modified Eagles medium (DMEM) with 10% fetal bovine serum (FBS) and antibiotics, penicillin (10 U/ml) and streptomycin (10 μg/ml) in a humidified atmosphere containing 5% CO2 at 37° C. The cells were trypsinized and plated in 6-well tissue culture dishes at 2×10^5 cells/well, a day before commencing the experiments.
(§2) The expression plasmids carrying the third (PCP-1) and the fourth (PCP-2) intracellular domains were introduced into A549 cells using Transfectamine lipid (GIBCO Life Technologies, Burlington, ON). Three (3) micrograms of DNA and 16 μg of lipid were mixed in 200 μl of water and incubated at room temperature for 45 min. Then, the lipid-DNA complexes were diluted with 0.8 ml of Opti-MEM™ (GIBCO Life Technologies, Burlington, ON). The cells were washed twice with Hank's Balanced Salt Solution and incubated with lipid-DNA complexes for 6 hours. An equal volume of DMEM with 20% FBS was added and the cells were kept in the incubator overnight. On the next day, the medium was replaced with DMEM containing 10% FBS and antibiotics and incubated for another 24 hours. […]

FP receptor = molecular target: T2, FP receptor (Homo sapiens, UniProt P43088); experiment: Phosphoinositide hydrolysis in A549 cells stably expressing the peptides, stimulated with PGF2α; assay type: cell-based; details: peptide stably expressed intracellularly in A549 cells; 1 μM PGF2α, 30 min; n=3; FIG. 1A
T2 construct: introduced transiently into permeabilized A549 cells; endogenous in cells; host or cells: A549 lung carcinoma cells (ATCC CCL185)
T2 sequence (P43088 whole entry): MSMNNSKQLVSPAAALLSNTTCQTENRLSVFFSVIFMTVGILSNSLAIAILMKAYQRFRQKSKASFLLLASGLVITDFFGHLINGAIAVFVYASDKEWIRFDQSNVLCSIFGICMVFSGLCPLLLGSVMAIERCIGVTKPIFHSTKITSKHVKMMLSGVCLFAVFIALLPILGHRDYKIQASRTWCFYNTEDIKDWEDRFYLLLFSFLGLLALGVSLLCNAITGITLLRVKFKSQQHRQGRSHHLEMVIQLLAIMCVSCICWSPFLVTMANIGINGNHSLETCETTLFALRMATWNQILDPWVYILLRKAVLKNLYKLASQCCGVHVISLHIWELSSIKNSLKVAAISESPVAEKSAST
Experimental: as §1, §2

RKAVLKNLYKLASQCCGVHVISLHIWELSSIKNSLKVAAISESPVAEKSAST (RKAVLKNLYKLASQCCGVHVISLHIWELSSIKNSLKVAAISESPVAEKSAST) [PCP-2, fourth intracellular domain of the human FP receptor, expressed intracellularly from a plasmid]
inositol phosphate generation by EP1 receptor on stimulation with PGE2 (EP1): did not affect
ligand-stimulated phosphoinositide hydrolysis (fold stimulation over unstimulated controls) (FP receptor): inhibited

RVKFKSQQHR QGRSHHLEM (RVKFKSQQHRQGRSHHLEM) [PCP-1, third intracellular domain of the human FP receptor, expressed intracellularly from a plasmid]
inositol phosphate generation by EP1 receptor on stimulation with PGE2 (EP1): did not affect
ligand-stimulated phosphoinositide hydrolysis (fold stimulation over unstimulated controls) (FP receptor): inhibited
